A short description of the data set: MalA biochemical activity assays, mutants versus wild-type MalA. As to the method: Biochemical activity assays were performed in a 100 μL volume with the following components: 18 μM MalA, 54 μM HpaC flavin reductase,^3 100 μM FAD, 50 mM NaCl, 250 μM substrate, 5 mM NADH, and brought to total volume with reaction buffer (same as storage bufferNaBr). The chlorination reactions proceeded for 20 minutes and the bromination reactions proceeded overnight. The reactions were extracted with ethyl acetate ([…], in triplicate) and dried down under nitrogen gas. The dried extract was resuspended in LC/MS grade methanol to a concentration of around 10 μM for LC/MS analysis. High resolution mass spectrometry was performed using electrospray ionization on an Agilent quadrupole time-of-flight spectrometer (Q-TOF 6500 series). Biochemical activity was monitored via the following HPLC method using acetonitrile and water: 65% acetonitrile for 5 minutes, gradient over 10 minutes to 95% acetonitrile, 95% acetonitrile for 5 minutes, gradient over 2 minutes to 65% acetonitrile, 65% acetonitrile for 11 minutes to re-equilibrate with a flow rate of 0.3 mL/minute, monitoring at 240 nm on a Phenomenex Lux cellulose-3, cellulose Tris (4-methylbenzoate) 250×4.6 mm column.

B1: MalA′: flavin-dependent halogenase from M. graminicola, generated by site-directed mutagenesis of malA: L276P/R428P (protein, UniProt L0E155 1-667, looked up, variant L276P R428P)
Flavin-dependent halogenase …: MAPTPKYTFTERAAAGNLSDAEILNSNNPTGSELPDESDVVVGGAGIHGLIYALHASKYKPNNLKISVIEKNTRPGYKIGESTLPIFYTWCKLHGISAAYLLRLFGLKDGLCFYFLDRENQGQYTDFCSVGAPGLVLASLQIERPMSELLFTILAQRNGVNVYHGREVDFKSTVVQGGGQGNKIAVSRGKYDSTPKTIDSALFVDATGRFRQFCSKKAPRHRFDGWNCNAFWGYFTAPKDESKIPFDLYEGDHTNHLCFPEGWVWVIRLPSWEGSPIANLMDMVTYILECADAGVPGDELPSSEELARMFGLKFQWVTSIGFAVRNDVKYPEDLSAYGTREAEQKFNYFVQKYELLQQFMSNFELIENLYGPGTTWFIRKTLAYQSPVVSGPGWLAIGDACGFTNPLYSPGINVGMSTSTWAAQLSHPIVEIGKSAPADAAESSIRKLLVPYDDYCKSLVPALEQMNRFNYVCYRDTRLGPQVACLWQFFAGIERYLSDVNIETFAHYAIKWVWGAMVPEYQQVAQKCIEHIETVPLDERLPDAMVDELLAFSNRIKSAAVAADDFSLRWDAILRSFDRSLNFVEGKTSRDIYTRQCSGCGAWLQLRPDWKKCHSCGLLGTEPQTAVTFDPPLTAEEEALLYAAWNTAPKYDPSKELKLPTPTRPAA
Consider B1, for which, for the setting “chlorination of compound 2”, the “halogenase activity relative to wild-type MalA” value was “essentially identical to MalA”.

B2: E494Q: MalA halogenase variant, Glu494 substituted with glutamine (protein, UniProt L0E155 1-667, looked up, variant E494Q)
Flavin-dependent halogenase …: MAPTPKYTFTERAAAGNLSDAEILNSNNPTGSELPDESDVVVGGAGIHGLIYALHASKYKPNNLKISVIEKNTRPGYKIGESTLPIFYTWCKLHGISAAYLLRLFGLKDGLCFYFLDRENQGQYTDFCSVGAPGLVLASLQIERPMSELLFTILAQRNGVNVYHGREVDFKSTVVQGGGQGNKIAVSRGKYDSTPKTIDSALFVDATGRFRQFCSKKAPRHRFDGWNCNAFWGYFTAPKDESKIPFDLYEGDHTNHLCFPEGWVWVIRLPSWEGSLIANLMDMVTYILECADAGVPGDELPSSEELARMFGLKFQWVTSIGFAVRNDVKYPEDLSAYGTREAEQKFNYFVQKYELLQQFMSNFELIENLYGPGTTWFIRKTLAYQSPVVSGPGWLAIGDACGFTNPLYSPGINVGMSTSTWAAQLSHRIVEIGKSAPADAAESSIRKLLVPYDDYCKSLVPALEQMNRFNYVCYRDTRLGPQVACLWQFFAGIQRYLSDVNIETFAHYAIKWVWGAMVPEYQQVAQKCIEHIETVPLDERLPDAMVDELLAFSNRIKSAAVAADDFSLRWDAILRSFDRSLNFVEGKTSRDIYTRQCSGCGAWLQLRPDWKKCHSCGLLGTEPQTAVTFDPPLTAEEEALLYAAWNTAPKYDPSKELKLPTPTRPAA
On to B2, for which the “halogenase activity relative to wild-type MalA” value (chlorination of compound 2) is reported as “inactivated”.

B3: MalA W263A: MalA flavin-dependent halogenase variant with W263A substitution (protein, UniProt L0E155 1-667, looked up, variant W263A)
Flavin-dependent halogenase …: MAPTPKYTFTERAAAGNLSDAEILNSNNPTGSELPDESDVVVGGAGIHGLIYALHASKYKPNNLKISVIEKNTRPGYKIGESTLPIFYTWCKLHGISAAYLLRLFGLKDGLCFYFLDRENQGQYTDFCSVGAPGLVLASLQIERPMSELLFTILAQRNGVNVYHGREVDFKSTVVQGGGQGNKIAVSRGKYDSTPKTIDSALFVDATGRFRQFCSKKAPRHRFDGWNCNAFWGYFTAPKDESKIPFDLYEGDHTNHLCFPEGAVWVIRLPSWEGSLIANLMDMVTYILECADAGVPGDELPSSEELARMFGLKFQWVTSIGFAVRNDVKYPEDLSAYGTREAEQKFNYFVQKYELLQQFMSNFELIENLYGPGTTWFIRKTLAYQSPVVSGPGWLAIGDACGFTNPLYSPGINVGMSTSTWAAQLSHRIVEIGKSAPADAAESSIRKLLVPYDDYCKSLVPALEQMNRFNYVCYRDTRLGPQVACLWQFFAGIERYLSDVNIETFAHYAIKWVWGAMVPEYQQVAQKCIEHIETVPLDERLPDAMVDELLAFSNRIKSAAVAADDFSLRWDAILRSFDRSLNFVEGKTSRDIYTRQCSGCGAWLQLRPDWKKCHSCGLLGTEPQTAVTFDPPLTAEEEALLYAAWNTAPKYDPSKELKLPTPTRPAA
For the molecule B3, where the note is “chlorination of compound 2”, the “production of compound 1 relative to wild-type MalA” value turned out to be 5%, the “production of compound 3 relative to wild-type MalA” value amounted to 50% and the “production of compound 4 relative to wild-type MalA” value was 60%.

B4: MalA W265A: MalA flavin-dependent halogenase variant with W265A substitution (protein, UniProt L0E155 1-667, looked up, variant W265A)
Flavin-dependent halogenase …: MAPTPKYTFTERAAAGNLSDAEILNSNNPTGSELPDESDVVVGGAGIHGLIYALHASKYKPNNLKISVIEKNTRPGYKIGESTLPIFYTWCKLHGISAAYLLRLFGLKDGLCFYFLDRENQGQYTDFCSVGAPGLVLASLQIERPMSELLFTILAQRNGVNVYHGREVDFKSTVVQGGGQGNKIAVSRGKYDSTPKTIDSALFVDATGRFRQFCSKKAPRHRFDGWNCNAFWGYFTAPKDESKIPFDLYEGDHTNHLCFPEGWVAVIRLPSWEGSLIANLMDMVTYILECADAGVPGDELPSSEELARMFGLKFQWVTSIGFAVRNDVKYPEDLSAYGTREAEQKFNYFVQKYELLQQFMSNFELIENLYGPGTTWFIRKTLAYQSPVVSGPGWLAIGDACGFTNPLYSPGINVGMSTSTWAAQLSHRIVEIGKSAPADAAESSIRKLLVPYDDYCKSLVPALEQMNRFNYVCYRDTRLGPQVACLWQFFAGIERYLSDVNIETFAHYAIKWVWGAMVPEYQQVAQKCIEHIETVPLDERLPDAMVDELLAFSNRIKSAAVAADDFSLRWDAILRSFDRSLNFVEGKTSRDIYTRQCSGCGAWLQLRPDWKKCHSCGLLGTEPQTAVTFDPPLTAEEEALLYAAWNTAPKYDPSKELKLPTPTRPAA
In the case of B4, the “halogenase activity relative to wild-type MalA” value (chlorination of compound 2) is given as “drastic decrease in activity”.

B5: E494A: MalA halogenase variant, Glu494 substituted with alanine (protein, UniProt L0E155 1-667, looked up, variant E494A)
Flavin-dependent halogenase …: MAPTPKYTFTERAAAGNLSDAEILNSNNPTGSELPDESDVVVGGAGIHGLIYALHASKYKPNNLKISVIEKNTRPGYKIGESTLPIFYTWCKLHGISAAYLLRLFGLKDGLCFYFLDRENQGQYTDFCSVGAPGLVLASLQIERPMSELLFTILAQRNGVNVYHGREVDFKSTVVQGGGQGNKIAVSRGKYDSTPKTIDSALFVDATGRFRQFCSKKAPRHRFDGWNCNAFWGYFTAPKDESKIPFDLYEGDHTNHLCFPEGWVWVIRLPSWEGSLIANLMDMVTYILECADAGVPGDELPSSEELARMFGLKFQWVTSIGFAVRNDVKYPEDLSAYGTREAEQKFNYFVQKYELLQQFMSNFELIENLYGPGTTWFIRKTLAYQSPVVSGPGWLAIGDACGFTNPLYSPGINVGMSTSTWAAQLSHRIVEIGKSAPADAAESSIRKLLVPYDDYCKSLVPALEQMNRFNYVCYRDTRLGPQVACLWQFFAGIARYLSDVNIETFAHYAIKWVWGAMVPEYQQVAQKCIEHIETVPLDERLPDAMVDELLAFSNRIKSAAVAADDFSLRWDAILRSFDRSLNFVEGKTSRDIYTRQCSGCGAWLQLRPDWKKCHSCGLLGTEPQTAVTFDPPLTAEEEALLYAAWNTAPKYDPSKELKLPTPTRPAA
B5: the “halogenase activity relative to wild-type MalA” value (chlorination of compound 2) is given as “inactivated”.

B6: E494D: MalA halogenase variant, Glu494 substituted with aspartate (protein, listed as Malbranchea graminicola)
chain: MAPTPKYTFTERAAAGNLSDAEILNSNNPTGSELPDESDVVVGGAGIHGLIYALHASKYKPNNLKISVIEKNTRPGYKIGESTLPIFYTWCKLHGISAAYLLRLFGLKDGLCFYFLDRENQGQYTDFCSVGAPGLVLASLQIERPMSELLFTILAQRNGVNVYHGREVDFKSTVVQGGGQGNKIAVSRGKYDSTPKTIDSALFVDATGRFRQFCSKKAPRHRFDGWNCNAFWGYFTAPKDESKIPFDLYEGDHTNHLCFPEGWVWVIRLPSWEGSPIANLMDMVTYILECADAGVPGDELPSSEELARMFGLKFQWVTSIGFAVRNDVKYPEDLSAYGTREAEQKFNYFVQKYELLQQFMSNFELIENLYGPGTTWFIRKTLAYQSPVVSGPGWLAIGDACGFTNPLYSPGINVGMSTSTWAAQLSHPIVEIGKSAPADAAESSIRKLLVPYDDYCKSLVPALEQMNRFNYVCYRDTRLGPQVACLWQFFAGIDRYLSDVNIETFAHYAIKWVWGAMVPEYQQVAQKCIEHIETVPLDERLPDAMVDELLAFSNRIKSAAVAADDFSLRWDAILRSFDRSLNFVEGKTSRDIYTRQCSGCGAWLQLRPDWKKCHSCGLLGTEPQTAVTFDPPLTAEEEALLYAAWNTAPKYDPSKELKLPTPTRPAA
modifications: Wild-type MalA' protein
notes: MalA halogenase variant, Glu494 substituted with aspartate
In the case of B6, the “halogenase activity relative to wild-type MalA” value (chlorination of compound 2) was “slight activity”.

B7: MalA H253A: MalA halogenase variant, His253 substituted with alanine (protein, UniProt L0E155 1-667, looked up, variant H253A)
Flavin-dependent halogenase …: MAPTPKYTFTERAAAGNLSDAEILNSNNPTGSELPDESDVVVGGAGIHGLIYALHASKYKPNNLKISVIEKNTRPGYKIGESTLPIFYTWCKLHGISAAYLLRLFGLKDGLCFYFLDRENQGQYTDFCSVGAPGLVLASLQIERPMSELLFTILAQRNGVNVYHGREVDFKSTVVQGGGQGNKIAVSRGKYDSTPKTIDSALFVDATGRFRQFCSKKAPRHRFDGWNCNAFWGYFTAPKDESKIPFDLYEGDATNHLCFPEGWVWVIRLPSWEGSLIANLMDMVTYILECADAGVPGDELPSSEELARMFGLKFQWVTSIGFAVRNDVKYPEDLSAYGTREAEQKFNYFVQKYELLQQFMSNFELIENLYGPGTTWFIRKTLAYQSPVVSGPGWLAIGDACGFTNPLYSPGINVGMSTSTWAAQLSHRIVEIGKSAPADAAESSIRKLLVPYDDYCKSLVPALEQMNRFNYVCYRDTRLGPQVACLWQFFAGIERYLSDVNIETFAHYAIKWVWGAMVPEYQQVAQKCIEHIETVPLDERLPDAMVDELLAFSNRIKSAAVAADDFSLRWDAILRSFDRSLNFVEGKTSRDIYTRQCSGCGAWLQLRPDWKKCHSCGLLGTEPQTAVTFDPPLTAEEEALLYAAWNTAPKYDPSKELKLPTPTRPAA
Turning to B7, the “site-selectivity profile of bromination” value (bromination of compound 2) is given as “same product profile as the wild-type MalA”. Further, the site-selectivity of chlorination result (chlorination of compound 2, C8 versus C9) is given as “selective for producing the C9-chlorinated compound 3”.

Values taken from patent US12252714B2, “Halogenation of complex organic compounds” (REGENTS OF THE UNIVERSITY OF MICHIGAN, priority 2018, dated 2025).
